This passage reports percent of the ADRM1 signal associated with 19S results from publication doi:10.1101/2020.05.06.080465.

The target in the test is 19S proteasomal subunit (human (endogenous in HeLa)). The test is described as follows: SEC.

Substance “ubiquitin receptor ADRM1 (from UniProt Q16186 1-407) (natural protein)” had a percent of the ADRM1 signal associated with 19S of 15%.
